According to US20190071490A1, “Preventing Post-Ictal Headaches” (Beth Israel Deaconess Medical Center, Inc., priority 2017, published 2019):

T1: human α-CGRP (Homo sapiens, UniProt P06881)
T1 construct: 1-37 (WT); purchased GenScript Corporation or Global Peptide Services
T1 sequence (P06881 83-119 limits assumed): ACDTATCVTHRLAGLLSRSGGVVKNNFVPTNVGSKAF

T2: rat α-CGRP (Rattus norvegicus, UniProt P01256)
T2 construct: rat α (1-37); purchased GenScript Corporation or Global Peptide Services
T2 sequence (P01256 83-119 limits assumed): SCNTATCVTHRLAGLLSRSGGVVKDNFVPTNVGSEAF


Columns and labels:
human α-CGRP = target: T1, human α-CGRP; experiment: Biacore SPR affinity of Fab fragments to N-biotinylated human α-CGRP on SA chip; format: binding; conditions: 37° C., screening mode except underlined values
Method: (§1) Affinity determination of the Fabs. Affinities of the anti-CGRP monoclonal antibodies were determined at either 25° C. or 37° C. using the BIACORE3000™ surface plasmon resonance (SPR) system (Biacore, INC, Piscataway N.J.) with the manufacture's own running buffer, HBS-EP (10 mM HEPES pH 7.4, 150 mM NaCl, 3 mM EDTA, 0.005% v/v polysorbate P20). Affinity was determined by capturing N-terminally biotinylated CGRP peptides (custom ordered from GenScript Corporation, New Jersey or Global Peptide Services, Colorado) via pre-immobilized streptavidin on SA chip and measuring binding kinetics of antibody Fab titrated across the CGRP surface. Biotinylated CGRP was diluted into HBS-EP and injected over the chip at a concentration of less than 0.001 mg/ml. Using variable flow time across the individual chip channels, two ranges of antigen density were achieved: <50 response units (RU) for detailed kinetic studies and about 800 RU for concentration studies and screening. […] After each binding cycle, surfaces were regenerated with 25 mM NaOH in 25% v/v ethanol, which was tolerated over hundreds of cycles. Kinetic association rate (kon) and dissociation rate (koff) were obtained simultaneously by fitting the data to a 1:1 Langmuir binding model (Karlsson et al. (1994). Methods Enzymology 6. 99-110) using the BIAevaluation program. Global equilibrium dissociation constants (KD) or “affinities” were calculated from the ratio KD=koff/kon.
(§2) Biacore assay for affinity determination. […] All Biacore assays were conducted in HBS-EP running buffer (10 mM HEPES pH 7.4, 150 mM NaCl, 3 mM EDTA, 0.005% v/v polysorbate P20). CGRP surfaces were prepared by diluting the N-biotinylated CGRP to a concentration of less than 0.001 mg/mL into HBS-EP buffer and injecting it across the SA sensor chip using variable contact times. Low capacity surfaces, corresponding to capture levels <50 response units (RU) were used for high-resolution kinetic studies, whereas high capacity surfaces (about 800 RU of captured CGRP) were used for concentration studies, screening, and solution affinity determinations. […] Samples were typically injected for 1 minute at 100 μL/min and dissociation times of at least 10 minutes were allowed. After each binding cycle, surfaces were regenerated with 25 mM NaOH in 25% v/v ethanol, which was tolerated over hundreds of cycles. An entire titration series (typically generated in duplicate) was fit globally to a 1:1 Langmuir binding model using the BIAevaluation program. This returned a unique pair of association and dissociation kinetic rate constants (respectively, kon and koff) for each binding interaction, whose ratio gave the equilibrium dissociation constant (KD=koff/kon).
(§3) High-resolution analysis of binding interactions with extremely slow off rates. […] The protocol described above was used with the following modifications. The association rate constant (kon) was determined by injecting a 2-fold titration series (in duplicate) spanning 550 nM-1 nM for 30 seconds at 100 μL/min and allowing only a 30 second dissociation phase. The dissociation rate constant (koff) was determined by injecting three concentrations (high, medium, and low) of the same titration series in duplicate for 30 seconds and allowing a 2-hour dissociation phase. The affinity (KD) of each interaction was obtained by combining the kon and koff values obtained in both types of experiments, as shown in Table 4.

rat α-CGRP = target: T2, rat α-CGRP; experiment: Biacore SPR affinity of Fab fragments to N-biotinylated rat α-CGRP on SA chip; format: binding; conditions: 37° C., screening mode except underlined values
Method: as §1, §2, §3

Molecule	α-human koff (human α-CGRP)	α-rat koff (rat α-CGRP)
M64: G1 variant; L1 R28N T30G; L2 G50A; H2 E54K A57N S58V; HC-FW3 L99T A100V (antibody, V domains shown) VH: EVQLVESGGGLVQPGGSLRLSCAASGFTFSNYWISWVRQAPGKGLEWVAEIRSKSDNVATHYAEAVKGRFTISRDNAKNSLYLQMNSLRAEDTAVYYCTVYFDYGLAIQNYWGQGTLVTVSS VL: EIVLTQSPATLSLSPGERATLSCKASKNVGTYVSWYQQKPGQAPRLLIYAASNRYLGIPARFSGSGSGTDFTLTISSLEPEDFAVYYCSQSYNYPYTFGQGTKLEIK	0.00132 s⁻¹	0.0234 s⁻¹
M74: G1 variant; L1 R28N T30G; L2 L56S; H2 E54K A57S; HC-FW3 L99T A100V (antibody, V domains shown) VH: EVQLVESGGGLVQPGGSLRLSCAASGFTFSNYWISWVRQAPGKGLEWVAEIRSKSDSSATHYAEAVKGRFTISRDNAKNSLYLQMNSLRAEDTAVYYCTVYFDYGLAIQNYWGQGTLVTVSS VL: EIVLTQSPATLSLSPGERATLSCKASKNVGTYVSWYQQKPGQAPRLLIYGASNRYSGIPARFSGSGSGTDFTLTISSLEPEDFAVYYCSQSYNYPYTFGQGTKLEIK	0.000597 s⁻¹	0.00603 s⁻¹
M72: G1 variant; L1 R28N T30G; L2 L56S; H2 E54K; HC-FW3 L99T A100V (antibody, V domains shown) VH: EVQLVESGGGLVQPGGSLRLSCAASGFTFSNYWISWVRQAPGKGLEWVAEIRSKSDASATHYAEAVKGRFTISRDNAKNSLYLQMNSLRAEDTAVYYCTVYFDYGLAIQNYWGQGTLVTVSS VL: EIVLTQSPATLSLSPGERATLSCKASKNVGTYVSWYQQKPGQAPRLLIYGASNRYSGIPARFSGSGSGTDFTLTISSLEPEDFAVYYCSQSYNYPYTFGQGTKLEIK	0.0004 s⁻¹	0.00395 s⁻¹
M71: G1 variant; L1 R28N T30G; L2 L561; H2 E54K A57Y; HC-FW3 L99T A100V (antibody, V domains shown) VH: EVQLVESGGGLVQPGGSLRLSCAASGFTFSNYWISWVRQAPGKGLEWVAEIRSKSDYSATHYAEAVKGRFTISRDNAKNSLYLQMNSLRAEDTAVYYCTVYFDYGLAIQNYWGQGTLVTVSS VL: EIVLTQSPATLSLSPGERATLSCKASKNVGTYVSWYQQKPGQAPRLLIYGASNRYIGIPARFSGSGSGTDFTLTISSLEPEDFAVYYCSQSYNYPYTFGQGTKLEIK	0.00128 s⁻¹	0.00212 s⁻¹
M70: G1 variant; L1 R28N T30G; L2 L561; H2 E54K A57S; HC-FW3 L99T A100V (antibody, V domains shown) VH: EVQLVESGGGLVQPGGSLRLSCAASGFTFSNYWISWVRQAPGKGLEWVAEIRSKSDSSATHYAEAVKGRFTISRDNAKNSLYLQMNSLRAEDTAVYYCTVYFDYGLAIQNYWGQGTLVTVSS VL: EIVLTQSPATLSLSPGERATLSCKASKNVGTYVSWYQQKPGQAPRLLIYGASNRYIGIPARFSGSGSGTDFTLTISSLEPEDFAVYYCSQSYNYPYTFGQGTKLEIK	0.000559 s⁻¹	0.00607 s⁻¹
M68: G1 variant; L1 R28N T30G; L2 L561; H2 E54K A57N S58D E64D; HC-FW3 L99T A100V (antibody, V domains shown) VH: EVQLVESGGGLVQPGGSLRLSCAASGFTFSNYWISWVRQAPGKGLEWVAEIRSKSDNDATHYADAVKGRFTISRDNAKNSLYLQMNSLRAEDTAVYYCTVYFDYGLAIQNYWGQGTLVTVSS VL: EIVLTQSPATLSLSPGERATLSCKASKNVGTYVSWYQQKPGQAPRLLIYGASNRYIGIPARFSGSGSGTDFTLTISSLEPEDFAVYYCSQSYNYPYTFGQGTKLEIK	0.000428 s⁻¹	0.00676 s⁻¹
M73: G1 variant; L1 R28N T30G; L2 L56S; H2 E54K A57N S58Y E64D; HC-FW3 L99T A100V (antibody, V domains shown) VH: EVQLVESGGGLVQPGGSLRLSCAASGFTFSNYWISWVRQAPGKGLEWVAEIRSKSDNYATHYADAVKGRFTISRDNAKNSLYLQMNSLRAEDTAVYYCTVYFDYGLAIQNYWGQGTLVTVSS VL: EIVLTQSPATLSLSPGERATLSCKASKNVGTYVSWYQQKPGQAPRLLIYGASNRYSGIPARFSGSGSGTDFTLTISSLEPEDFAVYYCSQSYNYPYTFGQGTKLEIK	0.000255 s⁻¹	0.003 s⁻¹
M69: G1 variant; L1 R28N T30G; L2 L561; H2 E54K A57N S58E; HC-FW3 L99T A100V (antibody, V domains shown) VH: EVQLVESGGGLVQPGGSLRLSCAASGFTFSNYWISWVRQAPGKGLEWVAEIRSKSDNEATHYAEAVKGRFTISRDNAKNSLYLQMNSLRAEDTAVYYCTVYFDYGLAIQNYWGQGTLVTVSS VL: EIVLTQSPATLSLSPGERATLSCKASKNVGTYVSWYQQKPGQAPRLLIYGASNRYIGIPARFSGSGSGTDFTLTISSLEPEDFAVYYCSQSYNYPYTFGQGTKLEIK	0.000733 s⁻¹	0.00181 s⁻¹
M65: G1 variant; L1 R28N T30G; L2 G50A L56I; H2 E54K A57C; HC-FW3 L99T A100V (antibody, V domains shown) VH: EVQLVESGGGLVQPGGSLRLSCAASGFTFSNYWISWVRQAPGKGLEWVAEIRSKSDCSATHYAEAVKGRFTISRDNAKNSLYLQMNSLRAEDTAVYYCTVYFDYGLAIQNYWGQGTLVTVSS VL: EIVLTQSPATLSLSPGERATLSCKASKNVGTYVSWYQQKPGQAPRLLIYAASNRYIGIPARFSGSGSGTDFTLTISSLEPEDFAVYYCSQSYNYPYTFGQGTKLEIK	0.000803 s⁻¹	0.00407 s⁻¹
M67: G1 variant; L1 R28N T30G; L2 L561; H2 E54K A57F; HC-FW3 L99T A100V (antibody, V domains shown) VH: EVQLVESGGGLVQPGGSLRLSCAASGFTFSNYWISWVRQAPGKGLEWVAEIRSKSDFSATHYAEAVKGRFTISRDNAKNSLYLQMNSLRAEDTAVYYCTVYFDYGLAIQNYWGQGTLVTVSS VL: EIVLTQSPATLSLSPGERATLSCKASKNVGTYVSWYQQKPGQAPRLLIYGASNRYIGIPARFSGSGSGTDFTLTISSLEPEDFAVYYCSQSYNYPYTFGQGTKLEIK	0.00082 s⁻¹	0.00171 s⁻¹
M66: G1 variant; L1 R28N T30G; L2 L561; H2 E54K A57E; HC-FW3 L99T A100V (antibody, V domains shown) VH: EVQLVESGGGLVQPGGSLRLSCAASGFTFSNYWISWVRQAPGKGLEWVAEIRSKSDESATHYAEAVKGRFTISRDNAKNSLYLQMNSLRAEDTAVYYCTVYFDYGLAIQNYWGQGTLVTVSS VL: EIVLTQSPATLSLSPGERATLSCKASKNVGTYVSWYQQKPGQAPRLLIYGASNRYIGIPARFSGSGSGTDFTLTISSLEPEDFAVYYCSQSYNYPYTFGQGTKLEIK	0.00052 s⁻¹	0.00511 s⁻¹
